From the nanobody polyreactivity screen of Harvey et al. (2022) come the findings set out here.

A short description of the data set: yeast display, Sf9 membrane polyspecificity reagent, FACS + sequencing; frameworks hold sequencing errors. Put shortly:
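Genes from sorted yeast were amplified by colony PCR, read by MiSeq 2 × 250 sequencing and filtered on CDR length. These cells carried a synthetic nanobody library in Saccharomyces cerevisiae BJ5465 and were sorted by FACS into low and high (top ~1%) gates on anti-HA and streptavidin fluorescence. Polyreactivity is labelled according to the gate of origin.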
On to “QVQLVESGGGLVQAGGSLRLSCAASGSIICVNAMGWYRQATGKERELVAAISSTGGSTYYADSVKGRFTISRDNAKNTVYLQMNSLKPEDTAVYYCNTDYSKSIGDGYAGFDYWGQGTQVTVSS”, for which the “polyreactivity (PSR sort gate)” value is reported as “low polyreactivity”. “QVQLVESGGGLVQAGGSLRLSCAASGSIIDQYVMGWYRQAPGKERELVADISIRGGSTYYADSVKGRFTISRDNAKNTVYFQMNSLKPEDTAVYYCNADEWWGYPWEEDDYWGQGTQVTVSS”: the “polyreactivity (PSR sort gate)” value is “low polyreactivity”. Under “QVQLVESGGGLVQAGGSLRLSCAASGSIIGDNTKGWYRQAPGKERELVAAISWRGGSTYYADSVKGRFTISLDNAKNTVFLQMNSLKPEDTAVYYCIGGPGGYDYWGQGSQVTVSS” stands “low polyreactivity”. In the case of “QVQLVESGGGLVQAGGSLRLSCAASGSIIGGNAMGWYRQAPGKERELVAAIRSGGRTNYADSVKGRFTISRDNAKNTVYLQMNSLKPEDTAVYYCAADYYLGGGYWGQGTQVTVSS” it was “low polyreactivity”; in that of “QVQLVESGGGLVQAGGSLRLSCAASGSIIGRYTMGWYRQAPGKERELVAAINRSGGSTSYADSVKGRFTISRDNAKNTVYLQMNSLKPEDTAVYYCNRARSVPQFYGTYGFGYDYWGQGTQVTVSS”, “low polyreactivity”; in that of “QVQLVESGGGLVQAGGSLRLSCAASGSIIGVNAMGWYRQAPGKERELVAAISSTGGSTYYADSVKGRFTLSRDNAKNTVYLQMNSLKPEDTAVYSCNTDYSKSIGDGYAGFDYWGQGTQVTVSS”, “low polyreactivity”. Under “QVQLVESGGGLVQAGGSLRLSCAASGSIIGYNTMGWYRQAPGKERELVAAISYSSGSTHYADSVKGRFTISRDNAKNTVYLQMNSLKPEDTAVYYCNTVRRWSFGYWGQGTQVTVSS” stands “low polyreactivity”; under “QVQLVESGGGLVQAGGSLRLSCAASGSIIGYYAMGWYRQAPGKECEFVAAITRSGARTYYADSLKGRFTISRDNAKNTVYLQMNSLKPEDTAVYYCAAGAYYRYTIEYDYWGQGTQVTVSS”, “high polyreactivity”.

Regarding “QVQLVESGGGLVQAGGSLRLSCAASGSIIKAYAMGWYREAAGKERELVATITRSGVSTYYADSVNGRFTISRDNAKNTVYLQMKSLKPEDTAVYYCNRTGYVRFYITQQRGYFRYDYWGQGTQVTVSS”, the “polyreactivity (PSR sort gate)” value is given as “low polyreactivity”. In the case of “QVQLVESGGGLVQAGGSLRLSCAASGSIIKPYDMGWYRQAPGKERELVAAIRSSGGRTNYADSVKGRFTISRDNAKNTVYLQMNSLKPEDTAVYYCAAGYVSYWYYRYDYWGQGTQVTVSS” it was “high polyreactivity”; in that of “QVQLVESGGGLVQAGGSLRLSCAASGSIIKRNAMGWSIQAPGKERELVASISSGGTYYADSVKGRFTISRDNAKNTVYLQMNSLKPEDSAVYYCATDRGVIYRGISGYIHYDYWGQGTQVTGSS”, “low polyreactivity”; in that of “QVQLVESGGGLVQAGGSLRLSCAASGSIILPNTMGWYRQAPGKERELVASISWNGGRTYYADSVKGRFTISRDNAKNTVYLQMNSLKPEDTAVYYCNADFRYPRVRYDYWGQGTQVTVSS”, “low polyreactivity”. Under “QVQLVESGGGLVQAGGSLRLSCAASGSIILQNAMGWYRQAPGKERELVAAITNGGSTNYADSVKGRFTISRDNAKNTVYLQMNSLKPEDTAVYYCAAYPLYTGSYDRGGYWGQGTQVTVSS” stands “low polyreactivity”; under “QVQLVESGGGLVQAGGSLRLSCAASGSIINRYAMGWYRQARGKERELVAAITQSGGRTYYADSVKGRFTISRDNAKNTVYLQMNSLKPEDTAVYYCAKAGWPGSYIYYRFRVGYDSWGQGTQVTVSS”, “high polyreactivity”. Consider “QVQLVESGGGLVQAGGSLRLSCAASGSIIQGYAMGWYRQAPGKERELVAVITTSGGSTYYADSVKGRFTISRDNAKNTVYLQMNSLKPEDTAVYYCAVGLLVYSRTYIGQAYFRYNYWGQGTQVTVSS”, for which the “polyreactivity (PSR sort gate)” value is recorded as “high polyreactivity”. On to “QVQLVESGGGLVQAGGSLRLSCAASGSIIQGYAMGWYRQEPGKERELVAAITGDGTTNYADSVKGRFTISRDNAKNNVYLQMNSLKPEDTAVYYCSATGLFNKFHGYGYLGQGTQVTVSS”, for which the “polyreactivity (PSR sort gate)” value is “low polyreactivity”. In the case of “QVQLVESGGGLVQAGGSLRLSCAASGSIIQGYVMGWYRQAPGKERELDAAISNSGSSTYYADSVKGRFTISRDNAKNTVYLQMNSLKPEDTAVYYCAVLRSYRGSKYGYWGQGTQVTVSS” it was “high polyreactivity”; in that of “QVQLVESGGGLVQAGGSLRLSCAASGSIIRTYAMGWYRQAPGKERELVAAISGSGSRTYYADSVKGRFTISRDNAKNTVYLQMNSLKPEDSAVYYCAADPGTPRYQFLWYGYWGQGTQVTVSS”, “low polyreactivity”. In the case of “QVQLVESGGGLVQAGGSLRLSCAASGSIIRTYVMGWYRQAPGKERELVAAITYSGGRTYYADSVKGRFTISRDNAKNTVYLQMNSLKPEDTAVYYCAARSPRPSAIYDYWGQGTQVTVSS” it was “high polyreactivity”. Consider “QVQLVESGGGLVQAGGSLRLSCAASGSIISANAMGWYRQAPGKESELVAAITSGDSTKYADSVKGRFTISRDNAKNTVYLQMNSLKPEDTAVYYCAVDRGVYKNRDGEEYWGQGTQVTVSS”, for which the “polyreactivity (PSR sort gate)” value is listed as “low polyreactivity”. Turning to “QVQLVESGGGLVQAGGSLRLSCAASGSIISRTVMGWYRQAPGKEREFVATISRSGGITYYADSVKGRFTISRDNAKNTVYLQMNSLKPEDTAVYYCAAGKFVSFPSHYGYWGQGTQVTVSS”, the “polyreactivity (PSR sort gate)” value is recorded as “high polyreactivity”.

For the sequence “QVQLVESGGGLVQAGGSLRLSCAASGSIISVYVMGWYRQAPGTERELVASITSGASTNYADSVKGRFTISRDNETNTVYLQMNSLKPEDTAVYYCAARDWYDGFYYWGQGTQVTVSS”, the “polyreactivity (PSR sort gate)” value was “low polyreactivity”. Under “QVQLVESGGGLVQAGGSLRLSCAASGSIITINAMGWYRQAPGKERELVAAISKRGGSTYYADSVKGRFTISSDNGKHTVYLQLNSLKPEDTAFYYCNAREYIHWRGALGLFGSWGQGTQVNVSS” stands “high polyreactivity”; under “QVQLVESGGGLVQAGGSLRLSCAASGSIITSYTMGWYRQAPGKERELVAAISRSGGSTYYADSVKGRFTISRDNAKNTVYLQMNSLKPEDTAVYYCAARQSKLRRETPNDYWGQGTQVTVSS”, “high polyreactivity”; under “QVQLVESGGGLVQAGGSLRLSCAASGSIIYRYAMGWYRQAPGKEMELVAAISTAGSTNYADSVKGRFTISRDNAKNTVYLLMNCLKPEDTAVYYCAAKSYRGRTQRSYGYWGQGTQVSVSS”, “low polyreactivity”. Under “QVQLVESGGGLVQAGGSLRLSCAASGSILADYAMGWDRQAPGKERELVAGISSGGSTNYADSVKGRFTISRDNAKNTVYLQMNSLKPEDTAVYYCNADQDFLFIGYLFDYWGQGTQVTVSS” stands “low polyreactivity”. Consider “QVQLVESGGGLVQAGGSLRLSCAASGSILADYAMGWYRQAPGKERELVAGISSGGSTNYADSVKGRFTISRDNAKNTVYLQMNSLKPEDTAVYYCNADQDFLFIGYLFDYWGQGTQVTVSS”, for which the “polyreactivity (PSR sort gate)” value was “low polyreactivity”. In the case of “QVQLVESGGGLVQAGGSLRLSCAASGSILAGYAMGWYRQAPGKERELVAAITTGGGSTYYADSVKGRFTISRDNAKNTVYLQMNSLKPEDTAVYYCAAYRKPGSWTWWVRGYGYWGQGTQVTVSS” it was “low polyreactivity”; in that of “QVQLVESGGGLVQAGGSLRLSCAASGSILARYAMGWYRQAPGKERELVAAISSRGGSTYYADSVKGRFTISRDNAKNTVYLQMNSLKPEDTAVYYCAAYVYLQVEYDYWGQGTQVTVSS”, “low polyreactivity”; in that of “QVQLVESGGGLVQAGGSLRLSCAASGSILASYAMGWYRPAPGKERELVAAISWNGARSYYADSVKGRFTISRDNAKNTVYLQMNSLKPEDTAVYYCAGVRVGRTTFDYWGQGTQVTVSS”, “low polyreactivity”. In the case of “QVQLVESGGGLVQAGGSLRLSCAASGSILASYAMGWYRQAPGKERELVAAIRTSGDRTYYADSVKGRFTISRDNAKNTVYLQMNSLKPEDTAVYYCAATYRYRPYSYYQYYSWGQGTQVTVSS” it was “high polyreactivity”; in that of “QVQLVESGGGLVQAGGSLRLSCAASGSILAYNAMGWYRQAPGKERELVASITTSGGSTYYADSVKGRFTISRDNAKNTVYLQMNSLKPEDTAVYYCNAEYWLGRWLRYGYWGQGTQVTVSS”, “high polyreactivity”. Under “QVQLVESGGGLVQAGGSLRLSCAASGSILAYYAMGWYRQAPGKERELVADITSSGGITYYADSVKGRFTISRDNAKNTVYLQMNSLKPEDTAVYYCNADSWAIGGGSYPYDYWGQGTQVTVSS” stands “low polyreactivity”. Consider “QVQLVESGGGLVQAGGSLRLSCAASGSILDLNAMGWYRQAPGKERELVAAISYSGDSTYYADSVKGRFTISRDNAKNTVYLQMNSLKPEDTAVYYCNAASFSDQGTLNHFYDWGQGTQVTVSS”, for which the “polyreactivity (PSR sort gate)” value was “low polyreactivity”. In the case of “QVQLVESGGGLVQAGGSLRLSCAASGSILDPYAMGWYRQAPGKERELVADISSGASTNYADSVKGRFTISRDNAKNTVYLQMNSLKPEDTAVYYCAAVYVEYSEYRYIVELYYWGQGTQVTVSS” it was “low polyreactivity”; in that of “QVQLVESGGGLVQAGGSLRLSCAASGSILDYYVMGCSRQSPGKERELVAAIRGGGSTYYADSVKGRFTISRDNAKNTVYLQMNSLKPEDTAVYYCAKDSQTARDFDYWGQGTQVTVSS”, “low polyreactivity”; in that of “QVQLVESGGGLVQAGGSLRLSCAASGSILEIYAMGWYRPAPGKEREFVASISWDVSSTYYADSVKGRFTISRDNAKNTVYLQMNSLKPEDTAVYYCATSLVWGLYDWYYDLSAAFDYWGQGTQVTVSS”, “low polyreactivity”.

As for “QVQLVESGGGLVQAGGSLRLSCAASGSILEIYAMGWYRQAPGKEREVVASISWDVSSTYYADSVKGRFTISRDNAKNTVYLQMNSLKPEDTAVYYCATSLVWGLYDWYYDLSAAFDYWGQGTQVTVSS”, the “polyreactivity (PSR sort gate)” value was “low polyreactivity”. In the case of “QVQLVESGGGLVQAGGSLRLSCAASGSILEPYAMGWYRQAPGKERELVATIRRGGSTYYADSVKGRFTISRDNAKNTVYLQMNSLKPEDTAVYYCAADRSVQVTFDYWGQGTQVTVSS” it was “low polyreactivity”; in that of “QVQLVESGGGLVQAGGSLRLSCAASGSILFKNAMGWYRQAPGKERELVAAISTSGGRTYYADSVKGRFTISRDNAKNTVYLEMNSLKPEDTAVYYCAAVYPRQVSQVWRDDYWGQGTQVTVSS”, “high polyreactivity”.
